Legend:
MS2 coat protein [1] = assay: apparent KD of MS2 coat protein, switch ON state; designed switch direction (-1 OFF switch, 1 ON switch): -1; higher = weaker reporter binding; conditions: FMN input: 0 or 200 uM; Eterna round: R93 (includes R88 designs)
Outline: (§1)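 The buffer was 100 mM Tris-HCl pH 7.5 with 80 mM KCl and 4 mM MgCl2, used without or with constant ligand. In it, RNA switches transcribed on-chip from Illumina sequencing clusters were titrated with SNAP-549-labelled MS2 coat protein in twofold steps from 0.7 or 1.5 nM to 3 µM. Apparent KD for each design is the median of its normalised cluster binding-curve fits.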

MS2 coat protein [2] = assay: apparent KD of MS2 coat protein, switch OFF state (with FMN for OFF switches, without FMN for ON switches); designed switch direction (-1 OFF switch, 1 ON switch): -1; higher = weaker reporter binding; conditions: FMN input: 0 or 200 uM; Eterna round: R93 (includes R88 designs)
Outline: as §1

Sequence	apparent KD of MS2 coat protein (MS2 coat protein [1])	apparent KD of MS2 coat protein (MS2 coat protein [2])
AAGAAACAUGAGGAUCACCCAUGUCAGGAUAUCCAAAAGAAAAGAAAAGAAAGAAGAAGGAGAAGGGACAAAGG [Neferkamin Anu]	31 nM	40.6 nM
AAAAACCUAGGAUAUACAUGAGGAUCACCCAUGUAAAAAAAAAAAAAGGGAAAAAAAAGUAGAAGGAGGAAAAA [Sekhemre Wadjkhaw Sobekemsaf I]	20.6 nM	24.9 nM
GGAUGCGUAGGAUAUACAUGAGGAUCACCCAUGUGAGAGAAAAAAGUGAGAAAGAAAAGUAGAAGGACGUGUCG [salish99-ex3-90]	34.9 nM	85.6 nM
GGUUGGCGAGGAUAUACAUGAGGAUCACCCAUGUGAGAGAAAAAAGUGAGGAGGAGCAGUAGAAGGCGCUGACG [salish99-ex3-19]	59.3 nM	147 nM
AACAUGUGAGGAUAUUAAAGAAAAGAAAAGAAAGAAAAGAAUAAGAAGGCACAUGAGGAUCACCCAUGUAAGAA [EteRNA is fun!]	32.5 nM	26.9 nM
AAAAAGUGAGGAUAUACAUGAGGAUCACCCAUGUAAAAAAAAAAAAGGGUGGAAGAAAGUAGAAGGCACCAAAA [Ex 3 May 47]	67.3 nM	75.1 nM
AAAUAGUUAGGAUAUACAUGAGGAUCACCCAUGUGCACGUAUGGAGAAUAUGGUGGUGGUAGAAGGGACUAAAA [EX2 Malc#20]	55.5 nM	94.7 nM
AAAAAAGGAGGAUAUACAUGAGGAUCACCCAUGUAAAAAGGGAAAAAAAAAAAAAAAAGUAGAAGGCCUAAAAA [JR_Exc003_Sub1701]	41.7 nM	65.1 nM
AAGAAGUAAGGAUAUACAAAAUAAAAGAAAAGAAAGAAAGAACAUGAGGAUCACCCAUGUAGAAGGUACAAGAA [Sankhkare Mentuhotep III]	38.1 nM	19.6 nM
AAAAAACAUGAGGAUCACCCAUGUGAGGAUAUACAAAACCCAUAUAAAAAGGGAAAAAGUAGAAGGCACAAAAA [wbt round 1 mod 11]	27.5 nM	33.9 nM
AGUAGAUCAGGAUAUACAUAAAUGAUAAUUAUGUAAUUUCUACAUGAGGAUCACCCAUGUAGAAGGGAUCUACA [Ex2 Design 136: Not so Super Stable 24]	14.4 nM	15.2 nM
AAGAAGUUAGGAUAUACAAGAAAGAAAGAAAAGAAAAGAAAACAUGAGGAUCACCCAUGUAGAAGGAACUAGAA [EteRNA is fun!]	26.8 nM	19.6 nM
AUCUUGUCAGGAUAUCGUAUAAUAUGGAAAACAUAGAGAUACGAGAAGGGACAUGAGGAUCACCCAUGUAAAAC [May 97]	41.7 nM	40 nM
AAAAAGUUAGGAUAUACAGAUAAAAAAACGAAAAAAAAUCUGUAGAAGGAACAUGAGGAUCACCCAUGUAAAAA [Ex 4 May 2]	25.6 nM	16.7 nM
GGUUGCGUAGGAUAUACAUGAGGAUCACCCAUGUGAGAGAAAAAAGUGAGAAAGAAAAGUAGAAGGACGUGACG [salish99-ex3-125]	29.7 nM	57.9 nM
AAGAAGUGAGGAUAUACAAAAUAAAAGAAAAGAAAGAAAGAACAUGAGGAUCACCCAUGUAGAAGGUACAAGAA [Khakheperre Senusret II]	29 nM	22 nM
AGUAGUACAGGAUAUACAUGAGGAUCACCCAUGUGAAAAUUAAGUGGCGUACCACAAAGUAGAAGGGUACUACA [Mat - Exclusion 3 - JL mod - D36]	31 nM	148 nM
AAGAAGUGAGGAUAUACGCGAACAAAAAAAAAAAAGAAAGCGUAGAAGGCACAUGAGGAUCACCCAUGUCAAAA [Alfred Victor Espinas]	30.1 nM	28.3 nM
AAAAAACAUGAGGAUCACCCAUGUUAGGAUAUUCCUAAAAAAAAAAAAAAAAAAAAUGGAAGAAGGAACAAAAA [excalibur10]	23.5 nM	30.2 nM
AAAAAACAUGAGGAUCACCCAUGUGAGGAUAUGAUGCGAAUAAAGAAAGAAUAAAGCAUCAGAAGGCACAAAAA [Mat - Exclusion 1 - Eli mod - D62]	36.4 nM	49.6 nM
AAAAAGAGAGGAUAUACAUGAGGAUCACCCAUGUGACACAAAAUAAAUAAAAUAAAGUGUAGAAGGCUCAAAAA [65%, Moding Exclusion3-cac2, 20]	23.8 nM	78.2 nM
AAAAAAUAAGGAUAUACAUUUCGGGAAAUUUUUACAAAAAAACAUGAGGAUCACCCAUGUAGAAGGUAUAAAAA [Exclusion 2]	18.6 nM	17.7 nM
AGUCAUACAGGAUAUACAUGAGGAUCACCCAUGUUUAUCCUAAAAUAAAAAAACUCAUGUAGAAGGGUAUGACA [EX3 214: Super Stable 14]	13 nM	31.3 nM

Reference: the supplement of paper PMC9170038
